This note sets out measurements from patent publication US20220119824A1.

The target in test [1] is IL-12 receptor on HEK-Blue™ IL-12 cells (InvivoGen) (UniProt P42701). As to the kind of experiment: cell-based or functional assay.
Test [2] deals with recombinant murine CTLA-4-human IgG1 Fc chimera (R&D Systems) (mouse; human) (UniProt P09793). In words: competitive ELISA: mouse CD86 coated (competitor), murine CTLA-4-human IgG1 Fc chimera at 10 ng/ml mixed with scFv supernatant, anti-human IgG1-HRP. A general note: In an ELISA, binding on a coated surface is turned into a signal by an enzyme label.
Test [3] has the same target. In words: competitive ELISA: mouse CD80 coated (competitor), murine CTLA-4-human IgG1 Fc chimera at 10 ng/ml mixed with scFv supernatant, anti-human IgG1-HRP.
Test [4] deals with mouse TGF-β1 (R&D systems) (mouse) (UniProt P04202). In words: direct ELISA with mouse TGF-β1 on supernatant of transfected HEK293T cells.
For test [5] the target is unchanged. As to the kind of experiment: direct ELISA with mouse TGF-β1 on concentrated supernatant of transfected HEK293T cells.

In turn, Mouse membrane bound IL-12p70 (ligand) came in with an STAT4-SEAP reporter in HEK-Blue IL-12 cells co-cultured with transfected HEK cells (Absorbance/% GFP) (Absorbance/% GFP) in test [1] of 0.117.

As to Human membrane bound IL-12p70 (ligand), the STAT4-SEAP reporter in HEK-Blue IL-12 cells co-cultured with transfected HEK cells (Absorbance/% GFP) (Absorbance/% GFP) in test [1] is 0.237.

“Anti-CTLA-4 scFv (ipilimumab scFv antibody fragment)”: the % CD86 Blockade Activity in test [2] came to 32.5%. Further, the % CD80 Blockade Activity in test [3] was 7%.

“muIL-12p70 (soluble murine IL-12p70) (from UniProt P43432 23-335; P43431 23-215) (ligand)” registered an STAT4-SEAP reporter in HEK-Blue IL-12 cells co-cultured with transfected HEK cells (Absorbance/% GFP) (Absorbance/% GFP) in test [1] of 0.11.

In the case of “huIL-12p70 (soluble human IL-12p70) (from UniProt P29460 23-328; P29459 23-219) (ligand)”, the STAT4-SEAP reporter in HEK-Blue IL-12 cells co-cultured with transfected HEK cells (Absorbance/% GFP) (Absorbance/% GFP) in test [1] is 0.11.

For the substance “Soluble mouse TGFβ receptor II Fc (from UniProt Q62312 24-166) (Fc fusion)”, the Absorbance at 450 nm (absorbance at 450 nm) in test [4] is 1.51; in test [5], 1.52.
